Measurements from the nanobody polyreactivity screen of Harvey et al. (2022).

Assay: yeast display, Sf9 membrane polyspecificity reagent, FACS + sequencing; frameworks hold sequencing errors
Summary of the method: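 Galactose induction of a Saccharomyces cerevisiae BJ5465 synthetic nanobody display library ran 36–48 hours. The cells were then stained for 1 hour at 4 °C with 10% biotinylated, detergent-solubilized Sf9 membrane reagent, pulled down on streptavidin microbeads and FACS-sorted into low and high (top ~1%) gates on expression and reagent-binding fluorescence. Labels for polyreactivity follow the gate of origin.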

| Sequence | polyreactivity (PSR sort gate) |
| --- | --- |
| QVQLVESGRGLVQAGGSLRLSCAASGRIFKTYAMGWYRQAPGKERELVAAITTSGDSTYYADSVKGRFTISRDNAKNTVYLQMNSLKPEDTAVYYCAARPRVRSSYRYYYWGQGTQLTVSS | high polyreactivity |
| QVQLVESGRGLVQAGGSLRLSCAASGRIFRYYTMGCYRQAPGKERELVASITYRGTSTYYADSVKGRFTISRDNAKNTVYLQMTSLKPEDTAVYYCNKDLFFRSISSKYDYWGQGTQVTVSS | high polyreactivity |
| QVQLVESGRGLVQAGGSLRLSCAASGRIFSGNAMGWYRQAPGKERELVAGITWTGGRTYYAASVKGRFTISRDNAKNTVYLQMNSLKPEDTAVYYCAARYTRWSDLMYYWGQGTQVTVSS | high polyreactivity |
| QVQLVESGRGLVQAGGSLRLSCAASGRIFVAYTMGLYRQAPGKERELVASINRSGGTYYADSVKGRFTISRDNAKNTVYLQMNRLKPEDTAVYYCNAVFRSRSYFSKGDYWGQGTQVTVSS | high polyreactivity |
| QVQLVESGRGLVQAGGSLRLSCAASGRIFYYNDMGWYRQAPGKERELVASITGSGGSTYYADSVKGRFTISRDNAKNTVYLQMNSLKPEDTAVYYCAKREYLYPYYYVAKYDYWGQGTQVTVSS | low polyreactivity |
| QVQLVESGRGLVQAGGSLRLSCAASGRIYRRNAIGWYRQAPGKERELVAAITWSDGSTYYADSVKGRFTISRDNAKNTVYFQMNSLKPEDTAVYYCNKVTRSPSEYDYWGQGTQVTVSS | high polyreactivity |
| QVQLVESGRGLVQAGGSLRLSCAASGRTFAVSTMGWYRKAAGQERELVATISWSGGSTYYADSVKGRFTISRDNAKNTVYLQMNSLKPEDTAVYFCNADFTWGSYERDYWGQGTQGTVSS | high polyreactivity |
| QVQLVESGRGLVQAGGSLRLSCAASGRTFNWYAKGWYRQAPGKERELVAAISSGGSTYYADSVKGRFTISRDNAKNTVYLQMNSLKPEDTAVYYCAAVTPSGAHRSAYHPISDYWGQGTQVTVSS | low polyreactivity |
| QVQLVESGRGLVQAGGSLRLSCAASGRTVWVYTMGWYRQAPGKERELVAAITLSGGSTYYADSVKGRFTISRDNAKNTVYLQMNSLKPEDTAVYYSNARPYYYTYRHSQYYYWGQGTQVTVSS | high polyreactivity |
| QVQLVESGRGLVQAGGSLRLSCAASGSIFNCYDMGWYRQAPGKERELVADIRSAGSTYYADSVKGRFTISRDNAKNTVYLQMNSLKPEDTAVNYCAAEAPVQPFYVFNTGIYELDYWGQGTQVTVSS | low polyreactivity |
| QVQLVESGRGLVQAGGSLRLSCAASGSIFQKYTMGWYRQAPGKERELVAGINTSGANTYYADSVKGRFTISRDNAKNTVYLQMNSLKPEDTAVYYCAAARPWFAYYYWGQGTQVTVSS | high polyreactivity |
| QVQLVESGRGLVQAGGSLRLSCAASGSIFRGNAMGWYRQAPGKERELVAAMTKRGGSTYYADSGKGRFTISRDNAKNTDKFQMNSLKPEDTAVYYFAAKPSYRYYKSYDYWGQGTQVTVSS | high polyreactivity |
| QVQLVESGRGLVQAGGSLRLSCAASGSIFSGNAMGWYRQAPGKERELVAAISRSGGSTYYADSVKGRFTISRDNAKNTVYLQLYSLKPEDTAVYYCAAYRTHGPPRALRFDYWGQGTLVTVSS | high polyreactivity |
| QVQLVESGRGLVQAGGSLRLSCAASGSTFLGNAMGWYREAPGKARELVAAITSAGSTYYADSVKGRFTISRDNAKNTVYLQMNSLKPEDTAVYYCNADSTWGGYGFDDWGQGTQVTVSS | low polyreactivity |
| QVQLVESGRGLVQAGGSLRLSCAASGSTFVYNVMGWYRQAHGKERELVAAIRRRGGSTYADSVKGRFTITRDNAKNTVYLQMNSLNPEVTAVYYCAAGIPRYWYAGHYDYWGQGTKVTVSS | low polyreactivity |
| QVQLVESGRGLVQAGGSLRLSCAASGSTLATYTMGWYRQAPGKERELVPAISFGGSTYYADSVKGRFTISRDNAKNTVYLQMNSLKPEDTAVYYCAVYGDSYWGAYYYSDGYWGQGTQVTVSS | low polyreactivity |

| Sequence | polyreactivity (PSR sort gate) |
| --- | --- |
| QVQLVESGRGLVQAGGSLRLSCAASGYTFSNYGMGWYRQAPGKERELVAGIILGGSSTYYADSVKGRFTISRDNAKNTVYLQMNSLKPEDTAVYYCAAYVTGRYDWGQGTQVTVSS | high polyreactivity |
| QVQLVESGRGLVQAGGSLRLSCAATGLTFNQYAMGWYRQAPGKERELVAAITRVGRTYYADSVKGRFTISRDNAKNSVYLQMNSLKPEDTAVYYWGYPDVAERRGSYYWGQGTQVTVSS | high polyreactivity |
| QVQLVESGRGLVQAGGSLRLSCAPSGRISAQYTMGWYRQAPGKERELVAAITWSGTNTYYADSVKGRFTISRDNAKNTVYLQMNSLKPEDTAVYYCATAVYLVIFEYDYWGQGTQVTVSS | low polyreactivity |
| QVQLVESGRGLVQAGGSLRLSCASSGFIFGPYAMGWYRQAPGKERELVAAISRRGGSTYYADSVKGRFTISRDNAKNTVYLQMNSLKPEDTAVYYCATRISQSYYNYGYWGQGTQGTVSS | high polyreactivity |
| QVQLVESGRGLVQAGGSLRLTGAASGRIFGLYAMGWYRHAPGKERELVAAISRRGGTTYYADSVQGRFTISRDNAKNTVDLQMNSLKPEDTAVYYCAAATVYLSWYYWGQGTQVTVSS | high polyreactivity |
| QVQLVESGRGLVQAGGSLSLSCAASGSILYIYAMVWNIQAPGKERELVDSINSGGSTNYADSVKGRFTISRDNAKNTVYLEMNSLIPEDTAVYYCAKSIGNPPQGFKDFDYWGQGTLVTVSS | low polyreactivity |
| QVQLVESGRGLVQEGGSLRLSCAASGSTFEPYAMGWYRQAPGKERELVAAITLTAGSTYYADSVKGRFTISRDNAKNTVYLQRNSLKPEDTAVYYCAAEFWLVEDDYWGQGTQVTVSS | low polyreactivity |
| QVQLVESGRGLVRAGGSLPFSCAASAGNFMRYAMGWYRQAPGKERELVAAITANGGSTYYADSVKGRFTISRDNAKNTVYLQMNSLKPEDTAVYYCNADTGVRSYRRDYWGQGSQVTVSS | low polyreactivity |
| QVQLVESGRRLVQAGGSLRLSCAASGRIFPGNAMGWYRQAPGKERELVAAMSYGGGSTYYADSVKGRFTISRDNAKNTVYLQMNSLKPEDTAVYYCAARYRGSRFDYWGQGTQVTVSS | high polyreactivity |
| QVQLVESGRVLVQAGGSLRLSCAASGITFISYAMGWYRPAPGKQSELVAVISKSGGRTYYADSVKGSFTISRDNANNTVYLQMNSLKPEDTAVYYCAADVYLSRYEKYGYWGQGTQVTVSS | high polyreactivity |
| QVQLVESGVALVQAAGSLRLSCAASGSTFGYYTMGWYRQAPGKERELVAAISWSGGSTYYADSVKGRFTISRDHAKTTVYLQMNSLKPEDTAVYFCAAKTNRGSYSYEYWGQGTQVTVSS | high polyreactivity |
| QVQLVESGVCLVQAGGSLRLSCASSGRILSTYAMGWYRQPPGKERELVAAISSGGSTYYADSVKGRFTISRDNAKHTVDLQMNSLKPEDTAVYYCNARKKRGYSRPAFDYWGQGTQVTVSS | high polyreactivity |
| QVQLVESGVGFVQAGGSLRLSCAASGRIFGYYMGWYIQAPGKERELVAGISKRGTRTRYADSVKGRFTISRDNAKNTVFLQMNSLKPEDTAVYYCNADYYVSNMDYWGQGTQVTVSS | high polyreactivity |
| QVQLVESGVGIVEAGGSLRLSCAASGRSFTYNAMVWYRQAPGKERELVAAISNTGSTYYADSVKGRFTISRDNAKNSVYLQMNCVKPEDTAVYYCAADRAEFRQDDDPGESNYWGQGTQVTVSS | low polyreactivity |
| QVQLVESGVGIVQAGGILRLSCAASGSIFFFYAMGWYRQAPAKERELVAAITSSDGDTYYADSVKGRFTISRDNAKNTVYLEMNSLKPEDTAVYYCAVRSSWYEGDYWGQGTQVTVSS | low polyreactivity |
| QVQLVESGVGIVQAGGSLRLSCAASGSTFRAYVMGWYRQAPGKERELVAVISSGGSTKYADSVKGRFTISRDNAKNTDYVQMNSLKPVDTAVYYCAARRASRHRYYPFDYWGQGTQVTVSS | high polyreactivity |
